{"source": "paper PMC3610634", "about": "(PLoS Genetics, 2013)", "target": "the molecule itself", "test": "solubility assay (sedimentation) + TEM; recombinant fibrils in 50 mM HEPES, pH 7.5; solubility assay 16.000 g, 30 min, 4°C; negative staining with 1% uranyl acetate"}
{"protein": "recombinant full-length Ure2p fibrils (natural protein, yeast, UniProt P23202 1-354, looked up) MMNNNGNQVSNLSNALRQVNIGNRNSNTTTDQSNINFEFSTGVNNNNNNNSSSNNNNVQNNNSGRNGSQNNDNENNIKNTLEQHRQQQQAFSDMSHVEYSRITKFFQEQPLEGYTLFSHRSAPNGFKVAIVLSELGFHYNTIFLDFNLGEHRAPEFVSVNPNARVPALIDHGMDNLSIWESGAILLHLVNKYYKETGNPLLWSDDLADQSQINAWLFFQTSGHAPMIGQALHFRYFHSQKIASAVERYTDEVRRVYGVVEMALAERREALVMELDTENAAAYSAGTTPMSQSRFFDYPVWLVGDKLTIADLAFVPWNNVVDRIGINIKIEFPEVYKWTKHMMRRPAVIKALRGE", "values": [{"measurement": "binding result", "value": "binds"}]}
